In patent US20210054097A1 (Novo Nordisk, published 2021):
Ends that are not written are not given here.

Assays:
[1] = target: T1, human plasma-derived Factor X zymogen (human, UniProt P00742 41-179; P00742 183-488); assay: apparent KD fitted from FXa generation assay
T1 construct: Plasma-derived, bought (Haematologic Technologies); also called FX; human FX
Protocol: The ability of the monovalent anti-FX Nanobody® (Nb) to promote FIXa-mediated FX-activation was determined in the presence of a procoagulant phospholipid membrane according to the principles described by Scheiflinger et al. (2008) J Thromb Haemost, 6:315-322. A Fab of mAb 13F62 (IgG1 isotype, variable sequences identified by SEQ ID NO:6 and 7), also found to bind the activation peptide, were included for comparison. Moreover, anti-FX antibodies as disclosed in U.S. Pat. No. 9,334,331 (J327 and L404-k in said publication), corresponding to the anti-FX arm of ACE910); and more recently in WO2018/021450 (J327 D31H and JYL280 in said publication) and WO2018/098363 (BIIB-12-917 represented by SEQ ID NO:427 and 615 in said publication) are stated to be suitable for use as part of anti-FIX/anti-FX bispecific FVIII mimetic compounds were, furthermore, included for comparison.
Each compound was tested individually in a concentration range from 0-1000 nM, 0-2000 nM, 0-4000 nM or 0-8000 nM by pre-incubation with 1-1.5 nM human plasma-derived FIXa (Haematologic Technologies Inc, USA) and 500 μM 25:75 phosphatidyl serine:phosphatidyl choline phospholipid vesicles (Haematologic Technologies Inc, USA) in assay buffer (50 mM HEPES, 100 mM NaCl, 5 mM CaCl₂, 0.1% (w/v) PEG8000, 1 mg/mL bovine serum albumin, pH 7.3) for 10 minutes. The reaction was initiated by addition of human plasma-derived FX (Haematologic Technologies Inc, USA) to a final concentration of 100 nM and a reaction volume of 50 μL. Following 20 minutes activation at room temperature while agitated (1000 RPM), the reaction was quenched by addition of 25 μL quench buffer (50 mM HEPES, 100 mM NaCl, 60 mM EDTA, 0.1% (w/v) PEG8000, 1 mg/mL bovine serum albumin, pH 7.3). The amount of FXa generated was determined by addition of 25 μL 2 mM S-2765 chromogenic substrate for FXa (Chromogenix, Sweden) and chromogenic substrate conversion was followed by measuring absorbance at 405 nm for 10 minutes in a microplate reader. The observed change in 405 nm absorbance (ΔAbs405/min) was fitted to the quadratic binding equation (eq. 1) to obtain the peak stimulatory activity and EC50.

[2] = target: T1, human plasma-derived Factor X zymogen; assay: cell-based or functional assay
[3] = target: T2, FX activation peptide 12-mer SGEAPDSITWKP (human); assay: peptide ELISA
T2 peptide: SGEAPDSITWKP-biotin
Protocol: (§1) The peptides were C-terminally conjugated to biotin and 50 μL of 1 μg/mL peptide solution was used for immobilization in discrete wells of the microtiter plate which was pre-coated with 1 μg/mL streptavidin. Each well was washed with washing buffer (10 mM Tris, 150 mM NaCl, 2.5 mM CaCl₂, 0.05% Tween 20, pH 8.60) followed by addition of 50 μL of 2 μg/mL FLAG-tagged anti-FX Nanobody® or IgG antibody to be tested. After 1 hour non-bound Nanobody®/antibody was washed off using washing buffer.
(§2) Bound anti-FX activation peptide ligand was detected by first binding a HRP-labelled secondary antibody (for FLAG-tagged Nanobodies: Anti-FLAG mAb M2-Peroxidase (HRP) (Sigma Aldrich, US), for antibody: Fcγ Fragment Specific Peroxidase AffiniPure F(ab′)₂ Fragment Goat Anti-Human IgG (Jackson ImmunoResearch Laboratories, Inc., US), or Peroxidase AffiniPure Goat Anti-Mouse IgG (Jackson ImmunoResearch Laboratories, Inc., US)) for 1 hour, and then adding 100 μL TMB-1 ELISA substrate (Kem-En-Tec Diagnostics, Denmark).

[4] = target: T3, FX activation peptide 12-mer TENPFDLLDFNQ (human); assay: peptide ELISA
T3 peptide: TENPFDLLDFNQ-biotin
Protocol: as §1, §2

[5] = target: T4, FX activation peptide 12-mer QTQPERGDNNLT (human); assay: peptide ELISA
T4 peptide: QTQPERGDNNLT-biotin
Protocol: as §1, §2

[6] = target: T5, FX activation peptide 12-mer LLDFNQTQPERG (human); assay: peptide ELISA
T5 peptide: LLDFNQTQPERG-biotin
Protocol: as §1, §2

[7] = target: T6, FX activation peptide 12-mer ATSSSGEAPDSI (human); assay: peptide ELISA
T6 peptide: ATSSSGEAPDSI-biotin
Protocol: as §1, §2

[8] = target: T7, FX activation peptide 12-mer AQATSSSGEAPD (human); assay: peptide ELISA
T7 peptide: AQATSSSGEAPD-biotin
Protocol: as §1, §2

[9] = target: T8, FX activation peptide 12-mer AADLDPTENPFD (human); assay: peptide ELISA
T8 peptide: AADLDPTENPFD-biotin
Protocol: as §1, §2

[10] = target: T9, FX activation peptide 12-mer EAPDSITWKPYD (human); assay: peptide ELISA
T9 peptide: EAPDSITWKPYD-biotin
Protocol: as §1, §2

[11] = target: T10, FX activation peptide 12-mer KPYDAADLDPTE (human); assay: peptide ELISA
T10 peptide: KPYDAADLDPTE-biotin
Protocol: as §1, §2

[12] = target: T11, FX activation peptide 12-mer PYDAADLDPTEN (human); assay: peptide ELISA
T11 peptide: PYDAADLDPTEN-biotin
Protocol: as §1, §2

[13] = target: T12, FX activation peptide 12-mer NPFDLLDFNQTQ (human); assay: peptide ELISA
T12 peptide: NPFDLLDFNQTQ-biotin
Protocol: as §1, §2

[14] = target: T13, FX activation peptide 12-mer WKPYDAADLDPT (human); assay: peptide ELISA
T13 peptide: WKPYDAADLDPT-biotin
Protocol: as §1, §2

[15] = target: T14, FX activation peptide 12-mer FNQTQPERGDNN (human); assay: peptide ELISA
T14 peptide: FNQTQPERGDNN-biotin
Protocol: as §1, §2

[16] = target: T15, FX activation peptide 12-mer PDSITWKPYDAA (human); assay: peptide ELISA
T15 peptide: PDSITWKPYDAA-biotin
Protocol: as §1, §2

[17] = target: T16, FX activation peptide 12-mer DAADLDPTENPF (human); assay: peptide ELISA
T16 peptide: DAADLDPTENPF-biotin
Protocol: as §1, §2

[18] = target: T17, FX activation peptide 12-mer DLLDFNQTQPER (human); assay: peptide ELISA
T17 peptide: DLLDFNQTQPER-biotin
Protocol: as §1, §2

[19] = target: T18, FX activation peptide 12-mer GEAPDSITWKPY (human); assay: peptide ELISA
T18 peptide: GEAPDSITWKPY-biotin
Protocol: as §1, §2

[20] = target: T19, FX activation peptide 12-mer PFDLLDFNQTQP (human); assay: peptide ELISA
T19 peptide: PFDLLDFNQTQP-biotin
Protocol: as §1, §2

[21] = target: T20, FX activation peptide 12-mer SSSGEAPDSITW (human); assay: peptide ELISA
T20 peptide: SSSGEAPDSITW-biotin
Protocol: as §1, §2

[22] = target: T21, FX activation peptide 12-mer YDAADLDPTENP (human); assay: peptide ELISA
T21 peptide: YDAADLDPTENP-biotin
Protocol: as §1, §2

[23] = target: T22, FX activation peptide 12-mer ITWKPYDAADLD (human); assay: peptide ELISA
T22 peptide: ITWKPYDAADLD-biotin
Protocol: as §1, §2

[24] = target: T23, FX activation peptide 12-mer DSITWKPYDAAD (human); assay: peptide ELISA
T23 peptide: DSITWKPYDAAD-biotin
Protocol: as §1, §2

[25] = target: T24, FX activation peptide 12-mer SITWKPYDAADL (human); assay: peptide ELISA
T24 peptide: SITWKPYDAADL-biotin
Protocol: as §1, §2

[26] = target: T25, FX activation peptide 12-mer DPTENPFDLLDF (human); assay: peptide ELISA
T25 peptide: DPTENPFDLLDF-biotin
Protocol: as §1, §2

[27] = target: T26, FX activation peptide 12-mer LDFNQTQPERGD (human); assay: peptide ELISA
T26 peptide: LDFNQTQPERGD-biotin
Protocol: as §1, §2

[28] = target: T27, FX activation peptide 12-mer QATSSSGEAPDS (human); assay: peptide ELISA
T27 peptide: QATSSSGEAPDS-biotin
Protocol: as §1, §2

[29] = target: T28, FX activation peptide 12-mer DFNQTQPERGDN (human); assay: peptide ELISA
T28 peptide: DFNQTQPERGDN-biotin
Protocol: as §1, §2

[30] = target: T29, FX activation peptide 12-mer PTENPFDLLDFN (human); assay: peptide ELISA
T29 peptide: PTENPFDLLDFN-biotin
Protocol: as §1, §2

[31] = target: T30, FX activation peptide 12-mer ADLDPTENPFDL (human); assay: peptide ELISA
T30 peptide: ADLDPTENPFDL-biotin
Protocol: as §1, §2

[32] = target: T31, FX activation peptide 12-mer TWKPYDAADLDP (human); assay: peptide ELISA
T31 peptide: TWKPYDAADLDP-biotin
Protocol: as §1, §2

[33] = target: T32, FX activation peptide 12-mer TSSSGEAPDSIT (human); assay: peptide ELISA
T32 peptide: TSSSGEAPDSIT-biotin
Protocol: as §1, §2

[34] = target: T33, FX activation peptide 12-mer LDPTENPFDLLD (human); assay: peptide ELISA
T33 peptide: LDPTENPFDLLD-biotin
Protocol: as §1, §2

[35] = target: T34, FX activation peptide 12-mer SSGEAPDSITWK (human); assay: peptide ELISA
T34 peptide: SSGEAPDSITWK-biotin
Protocol: as §1, §2

[36] = target: T35, FX activation peptide 12-mer TQPERGDNNLTR (human); assay: peptide ELISA
T35 peptide: TQPERGDNNLTR-biotin
Protocol: as §1, §2

[37] = target: T36, FX activation peptide 12-mer DLDPTENPFDLL (human); assay: peptide ELISA
T36 peptide: DLDPTENPFDLL-biotin
Protocol: as §1, §2

[38] = target: T37, FX activation peptide 12-mer ENPFDLLDFNQT (human); assay: peptide ELISA
T37 peptide: ENPFDLLDFNQT-biotin
Protocol: as §1, §2

[39] = target: T38, FX activation peptide 12-mer FDLLDFNQTQPE (human); assay: peptide ELISA
T38 peptide: FDLLDFNQTQPE-biotin
Protocol: as §1, §2

[40] = target: T39, FX activation peptide 12-mer APDSITWKPYDA (human); assay: peptide ELISA
T39 peptide: APDSITWKPYDA-biotin
Protocol: as §1, §2

human activated Factor X = human activated Factor X (human, UniProt P00742 41-179; P00742 235-488); assay: cell-based or functional assay
Sequence of human activated Factor X (P00742 41-179, chain 1 of 2): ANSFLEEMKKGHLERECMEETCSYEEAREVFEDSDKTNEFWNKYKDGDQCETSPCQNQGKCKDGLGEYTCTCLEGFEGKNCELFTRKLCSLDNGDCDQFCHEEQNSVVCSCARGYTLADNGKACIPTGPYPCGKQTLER
Sequence of human activated Factor X (P00742 235-488, chain 2 of 2): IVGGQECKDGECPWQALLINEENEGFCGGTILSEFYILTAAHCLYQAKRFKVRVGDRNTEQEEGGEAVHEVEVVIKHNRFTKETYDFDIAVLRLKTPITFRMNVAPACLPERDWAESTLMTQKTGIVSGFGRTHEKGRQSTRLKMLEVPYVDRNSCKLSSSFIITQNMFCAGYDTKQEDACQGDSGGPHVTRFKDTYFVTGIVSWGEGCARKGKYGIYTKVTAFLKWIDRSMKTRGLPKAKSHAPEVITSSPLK

T1 sequence (P00742 41-179, chain 1 of 2): as the sequence (P00742 41-179, chain 1 of 2) above
T1 sequence (P00742 183-488, chain 2 of 2): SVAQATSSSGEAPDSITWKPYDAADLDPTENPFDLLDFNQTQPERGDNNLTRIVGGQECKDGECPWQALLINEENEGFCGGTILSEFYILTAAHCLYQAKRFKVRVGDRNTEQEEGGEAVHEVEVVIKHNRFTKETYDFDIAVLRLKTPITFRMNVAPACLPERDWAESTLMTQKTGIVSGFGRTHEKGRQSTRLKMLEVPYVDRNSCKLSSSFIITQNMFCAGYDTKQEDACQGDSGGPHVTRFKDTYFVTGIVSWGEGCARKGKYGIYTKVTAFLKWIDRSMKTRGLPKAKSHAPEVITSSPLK

B1: Fab of mAb 13F62 (Fab, V domains shown)
VH: EVQLVESGGGQVKPGGSLRLSCAASGFTFSTSSIYWVRQAPGKGLEWVSSISSGSSYIFYADSVKGRFTISRDNAKNSLFLQMNSLRAEDTAVYYCVSGYSRLLDYWGQGTLVTVSS
VL: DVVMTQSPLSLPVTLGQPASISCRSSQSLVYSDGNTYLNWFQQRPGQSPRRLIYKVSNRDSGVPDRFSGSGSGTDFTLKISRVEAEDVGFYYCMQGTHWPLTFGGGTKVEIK
notes: Fab of an IgG1 antibody; also called Fab of 13F62
Kd [1]: 3.1 nM | Increase in FX activation (fold) [2]: 1.5 fold

B2: mAb 13F62 (antibody, V domains shown)
VH: B1 VH
VL: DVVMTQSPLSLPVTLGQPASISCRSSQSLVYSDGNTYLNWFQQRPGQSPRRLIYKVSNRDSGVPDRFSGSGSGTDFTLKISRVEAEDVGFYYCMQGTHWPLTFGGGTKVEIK
notes: IgG1 isotype
ELISA signal relative to background [3]: 0.82 | ELISA signal relative to background [4]: 29.7 | ELISA signal relative to background [5]: 1.95 | ELISA signal relative to background [6]: 0.86 | ELISA signal relative to background [7]: 3.2 | ELISA signal relative to background [8]: 1.89 | ELISA signal relative to background [9]: 0.77 | ELISA signal relative to background [10]: 1.64 | ELISA signal relative to background [11]: 0.77 | ELISA signal relative to background [12]: 0.84 | ELISA signal relative to background [13]: 28.6 | ELISA signal relative to background [14]: 1.18 | ELISA signal relative to background [15]: 1.77 | ELISA signal relative to background [16]: 1.89 | ELISA signal relative to background [17]: 0.77 | ELISA signal relative to background [18]: 0.82 | ELISA signal relative to background [19]: 1.5 | ELISA signal relative to background [20]: 29.7 | ELISA signal relative to background [21]: 0.77 | ELISA signal relative to background [22]: 0.84 | ELISA signal relative to background [23]: 4.23 | ELISA signal relative to background [24]: 3.61 | ELISA signal relative to background [25]: 7.95 | ELISA signal relative to background [26]: 29.8 | ELISA signal relative to background [27]: 0.8 | ELISA signal relative to background [28]: 1.82 | ELISA signal relative to background [29]: 1.23 | ELISA signal relative to background [30]: 30.1 | ELISA signal relative to background [31]: 1.25 | ELISA signal relative to background [32]: 1.95 | ELISA signal relative to background [33]: 0.68 | ELISA signal relative to background [34]: 31 | ELISA signal relative to background [35]: 0.73 | ELISA signal relative to background [36]: 8.86 | ELISA signal relative to background [37]: 26.4 | ELISA signal relative to background [38]: 28.7 | ELISA signal relative to background [39]: 30.6 | ELISA signal relative to background [40]: 1.59 | FXa amidolytic activity (relative to free FXa, fold) (human activated Factor X): 0.94 fold
